Consider one molecule from publication PMC10105285 (Cell reports, 2023).

The target of the experiment is T1, FLAG-tagged human LMAN1, wild type (pED-FLAG-LMAN1) (human, UniProt P49257 31-510).
T1 sequence (looked up): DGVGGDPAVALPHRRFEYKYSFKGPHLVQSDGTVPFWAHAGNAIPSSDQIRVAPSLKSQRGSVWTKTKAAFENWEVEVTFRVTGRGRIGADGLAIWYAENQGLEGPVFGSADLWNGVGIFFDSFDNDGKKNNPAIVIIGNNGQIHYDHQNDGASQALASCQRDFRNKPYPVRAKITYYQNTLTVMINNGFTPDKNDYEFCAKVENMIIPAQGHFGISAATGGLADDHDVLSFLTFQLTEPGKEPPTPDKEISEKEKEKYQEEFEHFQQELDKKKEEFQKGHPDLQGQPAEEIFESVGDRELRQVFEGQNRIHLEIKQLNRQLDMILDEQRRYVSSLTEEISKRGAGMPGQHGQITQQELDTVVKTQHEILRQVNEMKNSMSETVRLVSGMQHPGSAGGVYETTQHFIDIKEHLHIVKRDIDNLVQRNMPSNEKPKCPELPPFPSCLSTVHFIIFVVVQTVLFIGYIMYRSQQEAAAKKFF
Nature of the experiment: flow cytometry on cells. A general note: A flow cytometer gives signals particle by particle.

B1: Der p 1 (Dermatophagoides pteronyssinus major mite allergen 1), biotinylated (natural protein, UniProt P08176 99-320, looked up)
chain: TNACSINGNAPAEIDLRQMRTVTPIRMQGGCGSCWAFSGVAATESAYLAYRNQSLDLAEQELVDCASQHGCHGDTIPRGIEYIQHNGVVQESYYRYVAREQSCRRPNAQRFGISNYCQIYPPNVNKIREALAQTHSAIAVIIGIKDLDAFRHYDGRTIIQRDNGYQPNYHAVNIVGYSNAQGVDYWIVRNSWDTNWGDNGYGYFAANIDLMMIEEYPYVVIL
modifications: biotinylated
Consider B1, for which the binding result is “binds”.
